Source: patent US20050182242A1, “Global analysis of protein activities using proteome chips” (priority 2001, published 2005)

What was measured:
calmodulin = molecular target: T1, calmodulin (Homo sapiens, UniProt P0DP23); assay: Yeast proteome chip probed with biotinylated calmodulin; type: binding; conditions: biotinylated calmodulin in the presence of calcium
T1 construct: purchased CalBiochem, USA
Text: To test for protein-protein interactions, the yeast proteome was probed with calmodulin (11). Calmodulin is a highly conserved calcium-binding protein involved in many calcium-regulated cellular processes and has many known physical partners (Hook et al., 2001, Annu. Rev. Pharmacol. Toxicol. 41:471). The calmodulin probe was biotinylated, and bound probe was detected using Cy3-labeled streptavidin. As a control, the yeast proteome was probed with Cy3-labeled streptavidin alone.
Generally, protein-protein interactions can be assayed as follows. Blocked proteome chips are washed three to five times in PBS buffer, and the extra liquid on the glass surface is removed by tapping the slides vertically on a KIMWIPE™. 200 ∞l of biotinylated protein probe is added to the proteome chip and immediately covered by a hydrophobic plastic cover slip (GRACE BIO-LABS™, USA). After trapped air bubbles are removed, the chip is incubated in a humidity chamber at room temperature (RT) for one hour. To remove the cover slip, the chip is immersed into large volume of PBS buffer (>50 ml), and the slip should float away. The chip is then moved to a second PBS bath (>50 ml) and washed 3×5 min with shaking at RT. […]

[1] = system: phosphatidylcholine (PC) liposomes; assay: Yeast proteome chip probed with PC liposomes; conditions: liposome binding signal on yeast proteome chip, Cy3-streptavidin detection
Text: (§1) To identify PI-binding proteins in yeast, liposomes were used as probes because the liposome provides the most relevant physiological condition to assay the interactors. Six types of liposomes were used. Each contains phosphatidylcholine (“PC”) with 1% (w/w) N-(biotinoyl)-1,2-dihexadecanoyl-sn-glycero-3-phosphoethanolamine, triethylammonium salt (biotin DHPE). The biotinylated lipid serves as a label that can be detected by Cy3-streptavidin (21). In addition to PC, the five other liposomes contain either 5% (w/w) PI(3)P, PI(4)P, PI(3,4)P2, PI(4,5)P2, or PI(3,4,5)P3 (FIG. 3A).
(§2) The protein-liposome interaction was assayed as follows. Appropriate amounts of each lipid in chloroform were mixed and dried under nitrogen. The lipid mixture was resuspended in TBS buffer by vortexing. The liposomes were created by sonication. Blocked proteome chips were washed three to five times in PBS buffer, and the extra liquid on the glass surface was removed by tapping the slides vertically on a KIMWIPE™. 200 μl of liposome solution was added to the proteome chip and immediately covered by a hydrophobic plastic cover slip (GRACE BIO-LAB™, USA). After trapped air bubbles were removed, the chip was incubated in a humidity chamber at RT for one hour. To remove the cover slip, the chip was immersed into large volume of PBS buffer (50 ml), so that the slip would float away. The chip was then moved to a second PBS bath (>50 ml) and washed 3×5 min with shaking at RT. After removing extra liquid on the surface of the chip, about 100 μl of Cy3 or Cy5 conjugated streptavidin (PIERCE™, USA; 1:2000 to 1:4000 dilution) was added to the surface and covered by a hydrophobic plastic cover slip (GRACE BIO-LABS™, USA). The chip was incubated for greater than 30 min in the dark at RT. The chip was then washed as described above. To completely remove the liquid on the chip, the chip was spun to dryness at 1500-2000 rpm for 5-10 min at RT.
(§3) • 1. S. Fields, Y. Kohara, D. J. Lockhart, Proc. Natl. Acad. Sci. 96, 8825 (1999); A. Goffeau et al., Science 274, 563 (1996). • 2 P. Ross-Macdonald et al., Nature 402, 413 (1999); J. L., DeRisi, V. R. Iyer, P. O. Brown, Science 278, 680 (1997); E. A. Winzeler et al., Science 285, 901 (1999). P. Uetz et al., Nature 403, 623 (2000); T. Ito et al., Proc. Natl. Acad. Sci. USA. 97, 1143 (2000) • 3 H. Zhu, M. Snyder, Curr. Opin. Chem. Biol. 5, 40 (2001). • 4 M. R. Martzen et al., Science 286, 1153 (1999). • 5 H. Zhu et al., Nat. Genet. 26, 283 (2000). • 6 G. MacBeath, S. L. Schreiber, Science 289, 1760 (2000). • 7 A. Caveman, J. Cell Sci. 113, 3543 (2000). • 8 P. Arenkov et al., Anal. Biochem 278, 123 (2000). • 9 D. A. Mitchell, T. K. Marshall, R. J. Deschenes, Yeast 9, 715 (1993). The expression vector pEGH was created by inserting an RGS-HisX6 epitope tag between the GST gene and the polycloning site of pEG(KG). The yeast ORFs were cloned using the strategy described previously (5), except every step was done in a 96-well format. Plasmid DNAs confirmed by DNA sequencing were reintroduced into both yeast (Y258) and E. coli (DH5a). […] 0.1 mM calcium was present in buffers in all subsequent steps. The chip was washed three times with PBS at RT. Cy3-conjugated streptavidin (Jackson IR, USA) (1:5000 dilution) was added to the chip and incubated for 30 min at RT. After extensive washing, the chip was spun dry and scanned using a microarray scanner; the data was subsequently acquired with the GENEPIX™ array densitometry software (Axon, USA). • 12 S. S. Hook, A. R. Means, Annu. Rev. […]

PI(4)P liposomes = assay: Yeast proteome chip probed with PI(4)P liposomes; conditions: liposome binding signal on yeast proteome chip, Cy3-streptavidin detection
Text: as §1, §2, §3

PI(4,5)P2 liposomes = assay: Yeast proteome chip probed with PI(4,5)P2 liposomes; conditions: liposome binding signal on yeast proteome chip, Cy3-streptavidin detection
Text: as §1, §2
(§4) • 1. S. Fields, Y. Kohara, D. J. Lockhart, Proc. Natl. Acad. Sci. 96, 8825 (1999); A. Goffeau et al., Science 274, 563 (1996). • 2 P. Ross-Macdonald et al., Nature 402, 413 (1999); J. L., DeRisi, V. R. Iyer, P. O. Brown, Science 278, 680 (1997); E. A. Winzeler et al., Science 285, 901 (1999). P. Uetz et al., Nature 403, 623 (2000); T. Ito et al., Proc. Natl. Acad. Sci. USA. 97, 1143 (2000) • 3 H. Zhu, M. Snyder, Curr. Opin. Chem. Biol. 5, 40 (2001). • 4 M. R. Martzen et al., Science 286, 1153 (1999). • 5 H. Zhu et al., Nat. Genet. 26, 283 (2000). • 6 G. MacBeath, S. L. Schreiber, Science 289, 1760 (2000). • 7 A. Caveman, J. Cell Sci. 113, 3543 (2000). • 8 P. Arenkov et al., Anal. Biochem 278, 123 (2000). • 9 D. A. Mitchell, T. K. Marshall, R. J. Deschenes, Yeast 9, 715 (1993). The expression vector pEGH was created by inserting an RGS-HisX6 epitope tag between the GST gene and the polycloning site of pEG(KG). The yeast ORFs were cloned using the strategy described previously (5), except every step was done in a 96-well format. Plasmid DNAs confirmed by DNA sequencing were reintroduced into both yeast (Y258) and E. coli (DH5a). […] 0.1 mM calcium was present in buffers in all subsequent steps. The chip was washed three times with PBS at RT. Cy3-conjugated streptavidin (Jackson IR, USA) (1:5000 dilution) was added to the chip and incubated for 30 min at RT. After extensive washing, the chip was spun dry and scanned using a microarray scanner; the data was subsequently acquired with the GENEPIX™ array densitometry software (Axon, USA). • 12 S. S. Hook, A. R. Means, Annu. Rev. Pharmacol. Toxicol.41, 471 (2001). • 13 M. S. Cyert, R. Kunisawa, D. Kaim, J. Thorner, Proc. Natl. Acad. Sci. USA 88, 7376 (1991). • 14 D. A. Stirling, K. A. Welch, M. J. Stark, EMBO J. 13, 4329 (1994). • 15 F. Bohl, Kruse, EMBO J. 19, 5514 (2000); E. Bertrand et al., Mol. Cell 2, 437 (1998). • 16 D. C. Winter, E. Y. Choe, R. Li, Proc. Nat. Acad Sci. USA 96, 7288 (1999). • 17 C.

PI(3,4,5)P3 liposomes = assay: Yeast proteome chip probed with PI(3,4,5)P3 liposomes; conditions: liposome binding signal on yeast proteome chip, Cy3-streptavidin detection
Text: as §1, §2, §4

PI(3,4)P2 liposomes = assay: Yeast proteome chip probed with PI(3,4)P2 liposomes; conditions: liposome binding signal on yeast proteome chip, Cy3-streptavidin detection
Text: as §1, §2, §4

six different liposomes = assay: Reverse membrane assay: proteins spotted on nitrocellulose probed with six liposomes; type: binding; conditions: HRP-conjugated streptavidin
Protocol: B. A reverse assay was carried out to test for protein-lipid interactions. The proteins were prepared and spotted onto nitrocellulose filters in a dilution series and probed with the six different liposomes. As a control, the six liposomes were also added to the BSA-blocked membrane. After extensive washing, the bound liposomes were detected using an HRP-conjugated streptavidin and an ECL kit.
C. Linear correlation between the binding signals and the amounts of Rim15p in a membrane assay. When liposome-binding signals of Rim15p from the membrane assay (FIG. 4B) were plotted against the concentration gradient of the spotted Rim15p, the binding signals of PI(4)P, PI(3,4)P2, PI(3)P, and PI(4,5)P2 correlated linearly with the amounts of Rim15p.
Therefore, six proteins, i.e., Rim15p, Eno2p, Hxk1p, Sps1p, Yg1059wp, and Gcn2p, were further tested for phosphoinositol binding using two types of standard assays (Williamson, 2000, Nat. Struct Biol. 7(10):834-7). For Rim15p, Eno2p, and Hxk1p, PI(4,5)P2 liposomes were first adhered to a nitrocellulose membrane, which was then blocked by BSA; different amounts of the GST fusion proteins and a GST control were used to probe the membrane, and bound proteins were detected using anti-GST antibodies. […] We also carried out the reverse assay for four GST fusion proteins, Rim15p, Sps1p, Yg1059wp, and Gcn2p (Guerra et al., 2000, Biosci. Rep. 20: 41). Different amounts of these purified proteins were spotted onto nitrocellulose filters and probed with the six different liposomes (FIG. 5B). The bound liposomes were detected using a horseradish peroxidase (“HRP”)-conjugated streptavidin.

PI(3)P liposomes = assay: Yeast proteome chip probed with PI(3)P liposomes; conditions: liposome binding signal on yeast proteome chip, Cy3-streptavidin detection
Text: as §1
The protein-liposome interaction was assayed as follows. Appropriate amounts of each lipid in chloroform were mixed and dried under nitrogen. The lipid mixture was resuspended in TBS buffer by vortexing. The liposomes were created by sonication. Blocked proteome chips were washed three to five times in PBS buffer, and the extra liquid on the glass surface was removed by tapping the slides vertically on a KIMWIPE™. 200 μl of liposome solution was added to the proteome chip and immediately covered by a hydrophobic plastic cover slip (GRACE BIO-LAB™, USA). After trapped air bubbles were removed, the chip was incubated in a humidity chamber at RT for one hour. To remove the cover slip, the chip was immersed into large volume of PBS buffer (50 ml), so that the slip would float away. […]

Row | Substance | calmodulin binding (calmodulin) | PC [1] | PI(4)P (PI(4)P liposomes) | PI(4, 5)P2 (PI(4,5)P2 liposomes) | PI(3, 4, 5)P3 (PI(3,4,5)P3 liposomes) | PI(3, 4)P2 (PI(3,4)P2 liposomes) | liposome binding in reverse membrane assay (six different liposomes) | PI(3)P (PI(3)P liposomes)
1 | Arc35p: component of the Arp2/3 actin-organizing complex | identified |  |  |  |  |  |  | 
2 | GCN2: yeast GST-HisX6 fusion protein on proteome chip |  | 1087.04 | 1356.97 | 505.60 | 975.60 | 232.01 | bound strongest to PI(3)P and PI(4)P and PI(3,4)P2 | 26.50
3 | PET9: yeast GST-HisX6 fusion protein on proteome chip |  | 14.97 |  | 26.13 | 17.66 | −5.81 |  | 
4 | RRP5: yeast GST-HisX6 fusion protein on proteome chip |  | 58.11 | 60.31 | 73.38 | 21.26 | 22.60 |  | 
5 | SDS3: yeast GST-HisX6 fusion protein on proteome chip |  |  | 11.76 | 4.35 | 9.67 | 3.45 |  | 
6 | SSB1: yeast GST-HisX6 fusion protein on proteome chip |  | 12.91 | 16.98 | 1.31 | 4.27 | 6.28 |  | 
